{"source": "patent US20190300875A1", "about": "(University of California, published 2019)", "molecules": {"B1": {"name": "human cryptochrome 1 (hCRY1) (other, UniProt Q16526 1-586, looked up)", "chain": "MGVNAVHWFRKGLRLHDNPALKECIQGADTIRCVYILDPWFAGSSNVGINRWRFLLQCLEDLDANLRKLNSRLFVIRGQPADVFPRLFKEWNITKLSIEYDSEPFGKERDAAIKKLATEAGVEVIVRISHTLYDLDKIIELNGGQPPLTYKRFQTLISKMEPLEIPVETITSEVIEKCTTPLSDDHDEKYGVPSLEELGFDTDGLSSAVWPGGETEALTRLERHLERKAWVANFERPRMNANSLLASPTGLSPYLRFGCLSCRLFYFKLTDLYKKVKKNSSPPLSLYGQLLWREFFYTAATNNPRFDKMEGNPICVQIPWDKNPEALAKWAEGRTGFPWIDAIMTQLRQEGWIHHLARHAVACFLTRGDLWISWEEGMKVFEELLLDADWSINAGSWMWLSCSSFFQQFFHCYCPVGFGRRTDPNGDYIRRYLPVLRGFPAKYIYDPWNAPEGIQKVAKCLIGVNYPKPMVNHAEASRLNIERMKQIYQQLSRYRGLGLLASVPSNPNGNGGFMGYSAENIPGCSSSGSCSQGSGILHYAHGDSQQTHLLKQGRSSMGTGLSGGKRPSQEEDTQSIGPKVQRQSTN", "notes": "Homodimerization tested with differently tagged copies (Flag-hCRY and Myc-hCRY) co-expressed in HEK293T cells; also called human CRY1"}, "B2": {"name": "Blue-light Inhibitor of Cryptochromes 2 (BIC2) (other)", "chain": "MKNTNLPEETKEPISPGSSHRKQNKTGTKTCFPETTVLSGRDRLKRHREEVAGKVPIPDSWGKEGLLMGWMDFSTFDAAFTSSQIVSARAALMADSGDDAGARGSRPQRLRVESSC", "notes": "also called Arabidopsis BIC2; AT3G44450"}, "B3": {"name": "GFP-BIC1 (other)", "chain": "MMNIDDTTSPMAHPIGPSQPPSDQTKQDPPSLPQEAASSVSADKKDLALLEEKPKQSQEEDRVDTGRERLKKHRREIAGRVWIPEIWGQEELLKDWIDCSTFDTCLVPAGISSARTALVEEARRAASASGGLHNRCLILR", "notes": "Expressed in HEK293T cells; not shown: GFP"}, "B4": {"name": "Blue-light Inhibitor of Cryptochromes 1 (BIC1) (other)", "chain": "B3 chain", "notes": "also called Arabidopsis BIC1; AT3G52740"}, "B5": {"name": "Myc-CRY2 (other)", "chain": "MKMDKKTIVWFRRDLRIEDNPALAAAAHEGSVFPVFIWCPEEEGQFYPGRASRWWMKQSLAHLSQSLKALGSDLTLIKTHNTISAILDCIRVTGATKVVFNHLYDPVSLVRDHTVKEKLVERGISVQSYNGDLLYEPWEIYCEKGKPFTSFNSYWKKCLDMSIESVMLPPPWRLMPITAAAEAIWACSIEELGLENEAEKPSNALLTRAWSPGWSNADKLLNEFIEKQLIDYAKNSKKVVGNSTSLLSPYLHFGEISVRHVFQCARMKQIIWARDKNSEGEESADLFLRGIGLREYSRYICFNFPFTHEQSLLSHLRFFPWDADVDKFKAWRQGRTGYPLVDAGMRELWATGWMHNRIRVIVSSFAVKFLLLPWKWGMKYFWDTLLDADLECDILGWQYISGSIPDGHELDRLDNPALQGAKYDPEGEYIRQWLPELARLPTEWIHHPWDAPLTVLKASGVELGTNYAKPIVDIDTARELLAKAISRTREAQIMIGAAPDEIVADSFEALGANTIKEPGLCPSVSSNDQQVPSAVRYNGSKRVKPEEEEERDMKKSRGFDERELFSTAESSSSSSVFFVSQSCSLASEGKNLEGIQDSSDQITTSLGKNGCK", "notes": "not shown: Myc tag"}, "B6": {"name": "Arabidopsis cryptochrome 2 (CRY2) (receptor)", "chain": "B5 chain", "notes": "also called AT1G04400"}, "B7": {"name": "nYFP-CRY2 (N terminus of YFP fused to CRY2) (other)", "chain": "B5 chain", "notes": "BiFC construct in Arabidopsis protoplasts; not shown: N terminus of YFP"}}, "key": {"[1]": {"molecular_target": "FLUC-CRY2 (Arabidopsis) (UniProt Q96524)", "assay": "quantitative co-IP (dual-luciferase), anti-Flag beads, HEK293T cells, blue light 30 µmol m^-2 s^-1"}, "[2]": {"molecular_target": "the molecule itself", "assay": "co-IP, HEK293T cells, control experiment"}, "[3]": {"molecular_target": "B6", "assay": "summary of the examples"}, "[4]": {"molecular_target": "T1, Flag-hCRY1 (human, UniProt Q16526 1-586)", "T1 construct": "this is the CRY1 form; not shown: Flag tag", "T1 sequence (looked up)": "B1 chain", "assay": "co-IP with anti-Flag beads, HEK293T cells (FIG. 11)", "description": "In FIG. 11, HEK293T cells coexpressing Flag-hCRY, Myc-hCRY and GFP-BIC1 or GFP were exposed to 100 μmol m⁻² s⁻¹ blue light for 2 hours (+) or kept in the dark (−). Anti-Flag antibody conjugated beads were used to perform the immunoprecipitations. Flag-hCRY (IP signal) and Myc-hCRY or GFP-BIC1 (co-IP signals) were detected by Flag and Myc or GFP antibody, respectively. […]"}, "[5]": {"molecular_target": "T2, GFP-CRY2 (CRY2 fused to green fluorescent protein) (Arabidopsis, UniProt Q96524 1-612)", "T2 construct": "Expressed in Arabidopsis plants together with Myc-CRY2; not shown: green fluorescent protein", "assay": "co-IP with GFP-Trap-A from etiolated seedlings co-expressing Myc-CRY2 and GFP-CRY2, blue light 20 sec to 10 min (FIG. 9A)", "from_the_text": "GFP-Trap-A were used to immunoprecipitate GFP-CRY2. GFP-CRY2 (IP signal) and Myc-CRY2 (co-IP signal) were detected by GFP or Myc antibody, respectively. […] HEK293T cells co-expressing FLUC-CRY2 and REN-CRY2 were exposed to blue light (30 μmol·m⁻²·s⁻¹) for the time indicated, lysed, aliquots removed for the measurement of ATL (Adjusted Total Luminescence), and FLUC-CRY2 precipitated by anti-Flag antibody conjugated beads. Photodimerization of CRY2 was quantified by the dual-luciferase assay to calculate the Normalized Dimerization Ratio (NDR) by the formula: NDR=[(REN/LUC)L/(REN/LUC)D]/ATL, where LUC is the LUC luminescence detected for the precipitated FLUC-CRY2, REN is the REN luminescence detected for the co-precipitated REN-CRY2. (REN/LUC)L or (REN/LUC)D were measured in cells exposed to light or darkness, respectively. ATL (Adjusted Total Luminescence) is the cell volume-adjusted sum of LUC and REN luminescence of the cell lysates before immunoprecipitation, in which REN luminescence is converted to the LUC equivalent by the standard curve prepared by analyses of the LUC-REN fusion protein (not shown). ATL represents concentration of the CRY2 protein. […] Flag-CRY2 (IP signal) and Myc-CRY2 or GFP-BIC1 (co-IP signals) were detected by Flag and Myc or GFP antibody, respectively. […]"}, "[6]": {"molecular_target": "T3, Flag-CRY2 (Arabidopsis, UniProt Q96524 1-612)", "T3 construct": "not shown: Flag tag", "assay": "co-IP with antibody to Flag, HEK293T cells, dark", "from_the_text": "Homodimers are the physiologically active form of plant CRYs (8, 9), but the effect of light on CRY dimerization has not been detected in previous studies (9, 20). This could be explained by, among other interpretations, light-independent CRY dimerization or masking effects of regulatory proteins, such as BICs, on the light-dependent CRY dimerization (9, 20). We reexamined the bluelight dependence of CRY2 dimerization using multiple approaches. In the first experiment, we coexpressed Flag-CRY2 and Myc-CRY2 in HEK293T cells (21-24) and tested the interaction between the two differentially tagged CRY2s by co-IP assay. In the absence of blue light, antibody to Flag coprecipitated little Myc-CRY2 from HEK293T cells expressing similar amounts of Flag-CRY2 and Myc-CRY2 (FIG. 4B and FIG. S12A of Wang et al)."}, "[7]": {"molecular_target": "the molecule itself", "assay": "yeast β-gal assay (FIG. 4A); also immunoblots of HEK293FT lysates (4B, 4C) and plant nuclear proteins (4D, 4E) after blue light", "from_the_text": "FIG. 4 provides data showing redox-dependent CRY dimerization, and blue-light-induced CRY and BIC interaction. (FIG. 4A) The β-galactosidase (β-gal) assay showing the blue-light-dependent formation of CRY2 dimer. Yeast cells were kept in darkness (D) or illuminated with blue light (B5, 5 μmol m⁻² s⁻¹; B25, 25 μmol m⁻² s⁻¹; B50, 50 μmol m⁻² s⁻¹) for the indicated time. (FIG. 4B) Immunoblot showing the blue-light-induced dimerization of CRY2 expressed in HEK293FT (H293) cells. The cells were lysed, divided into 12 samples and irradiated by blue light (40 μmol m⁻²s⁻¹) for the indicated durations. For β-mercaptoethanol (2-Me) treatment, 6 samples were added with 2-Me to 5% (v/v), and then all the samples were analyzed by western blot using anti-CRY2 antibody. CRY2, monomeric CRY2; (CRY2)2, CRY2 dimer; (CRY2)ₙ, CRY2 oligomer. (FIG. 4C) The H293 cell lysate were prepared in dark, irradiated with blue light for the durations indicated. For the NEM treatment, the samples were added with NEM (50 mM), and then the samples were analyzed by western blot using anti-CRY2 antibody. (FIGS. 4D and E) Dimerization and oligomerization of CRY2 proteins are blue light-induced in vivo. […]"}, "[8]": {"molecular_target": "T4, cCFP-CRY2 (C terminus of cyan fluorescent protein fused to CRY2) (Arabidopsis, UniProt Q96524 1-612)", "T4 construct": "BiFC construct in Arabidopsis protoplasts; not shown: C terminus of cyan fluorescent protein", "assay": "BiFC in Arabidopsis protoplasts"}}}
{"molecule": "REN-CRY2", "values": [{"measurement": "Maximum Photodimerization (Dm, maximum Normalized Dimerization Ratio)", "setting": "[1]", "result": 4.7}, {"measurement": "Rate of Photodimerization (D1/2)", "setting": "[1]", "result": 1, "unit": "min"}]}
{"molecule": "B1", "values": [{"measurement": "binding result", "setting": "[2]", "result": "binds"}]}
{"molecule": "B2", "values": [{"measurement": "binding result", "setting": "[3]", "result": "binds"}]}
{"molecule": "B3", "values": [{"measurement": "binding result", "setting": "[4]", "result": "binds"}]}
{"molecule": "B4", "values": [{"measurement": "binding result", "setting": "[3]", "result": "binds"}]}
{"molecule": "B5", "values": [{"measurement": "binding result", "setting": "[5]", "result": "binds"}, {"measurement": "binding result", "setting": "[6]", "result": "binds"}]}
{"molecule": "B6", "values": [{"measurement": "binding result", "setting": "[7]", "result": "binds"}]}
{"molecule": "B7", "values": [{"measurement": "binding result", "setting": "[8]", "result": "binds"}]}
